Assay results taken from publication PMC4585563, “Small angle X-ray scattering studies of CTNNBL1 dimerization and CTNNBL1/CDC5L complex” (Scientific Reports, 2015).

B1: CTNNBL1 (residues 77-563), wild type (domain or fragment, human, UniProt Q8WYA6 77-563, looked up)
chain: LDESSVKKMILTFEKRSYKNQELRIKFPDNPEKFMESELDLNDIIQEMHVVATMPDLYHLLVELNAVQSLLGLLGHDNTDVSIAVVDLLQELTDIDTLHESEEGAEVLIDALVDGQVVALLVQNLERLDESVKEEADGVHNTLAIVENMAEFRPEMCTEGAQQGLLQWLLKRLKAKMPFDANKLYCSEVLAILLQDNDENRELLGELDGIDVLLQQLSVFKRHNPSTAEEQEMMENLFDSLCSCLMLSSNRERFLKGEGLQLMNLMLREKKISRSSALKVLDHAMIGPEGTDNCHKFVDILGLRTIFPLFMKSPRKIKKVGTTEKEHEEHVCSILASLLRNLRGQQRTRLLNKFTENDSEKVDRLMELHFKYLGAMQVADKKIEGEKHDMVRRGEIIDNDTEEEFYLRRLDAGLFVLQHICYIMAEICNANVPQIRQRVHQILNMRGSSIKIVRHIIKEYAENIGDGRSPEFRENEQKRILGLLENF
notes: human CTNNBL1, residues 77-563, amplified from a human cDNA library; Dimer by SAXS at 0-200 mM NaCl and by SEC at 150 mM NaCl; monomer at 300-400 mM NaCl; also called native CTNNBL1; wild-type CTNNBL1; source: E. coli BL21(DE3)-T1R, purified (Ni-NTA, TEV protease, Ni-NTA, Superdex200); not shown: 6xHis, N-terminal, cleaved; VHb (bacterial hemoglobin), N-terminal, cleaved
B2: CDC5L^141-285 (domain or fragment, human, UniProt Q99459 141-285, looked up)
chain: PIDMDEDELEMLSEARARLANTQGKKAKRKAREKQLEEARRLAALQKRRELRAAGIEIQKKRKRKRGVDYNAEIPFEKKPALGFYDTSEENYQALDADFRKLRQQDLDGELRSEKEGRDRKKDKQHLKRKKESDLPSAILQTSGV
notes: CDC5L of the human hPrp19/CDC5L complex, residues 141-285; holds NLS3 (residues 200-206: KKRKRKR); cloned into pET-30a(+); also called 6xHis-tagged CDC5L 141-285; source: E. coli, purified as CTNNBL1 with 300 mM NaCl in the buffers, without TEV protease
B3: CDC5L^197-285 (domain or fragment, human, UniProt Q99459 197-285, looked up)
chain: EIQKKRKRKRGVDYNAEIPFEKKPALGFYDTSEENYQALDADFRKLRQQDLDGELRSEKEGRDRKKDKQHLKRKKESDLPSAILQTSGV
notes: CDC5L of the human hPrp19/CDC5L complex, residues 197-285; holds NLS3 (residues 200-206: KKRKRKR); cloned into pPosKJ; pPosKJ adds 6xHis and VHb, both removed only by TEV protease; the His-tagged proteins were made without TEV, so VHb should still be on the chain in the pull-down; also called 6xHis-tagged CDC5L 197-285; source: E. coli, purified as CTNNBL1 with 300 mM NaCl in the buffers, without …
B4: CDC5L^141-377 (domain or fragment, human, UniProt Q99459 141-377, looked up)
chain: PIDMDEDELEMLSEARARLANTQGKKAKRKAREKQLEEARRLAALQKRRELRAAGIEIQKKRKRKRGVDYNAEIPFEKKPALGFYDTSEENYQALDADFRKLRQQDLDGELRSEKEGRDRKKDKQHLKRKKESDLPSAILQTSGVSEFTKKRSKLVLPAPQISDAELQEVVKVGQASEIARQTAEESGITNSASSTLLSEYNVTNNSVALRTPRTPASQDRILQEAQNLMALTNVDT
notes: CDC5L of the human hPrp19/CDC5L complex, residues 141-377 of the N-terminal domain; holds NLS3 (residues 200-206: KKRKRKR); cloned into pET-30a(+); also called 6xHis-tagged CDC5L 141-377; source: E. coli, purified as CTNNBL1 with 300 mM NaCl in the buffers, without TEV protease

Experiments:
[1] = biological target: the molecule itself; assay: SAXS; CTNNBL1 alone in solution, 0 mM NaCl, 4 °C, 1.0-5.0 mg/ml; oligomeric state from molecular mass (absolute I(0)), Guinier and p(r) analysis
[2] = biological target: the molecule itself; assay: SAXS; CTNNBL1 alone in solution, 100 mM NaCl, 4 °C, 1.0-5.0 mg/ml; oligomeric state from molecular mass (absolute I(0)), Guinier and p(r) analysis
[3] = biological target: the molecule itself; assay: SAXS; CTNNBL1 alone in solution, 200 mM NaCl, 4 °C, 1.0-5.0 mg/ml; oligomeric state from molecular mass (absolute I(0)), Guinier and p(r) analysis
[4] = biological target: the molecule itself; assay: SEC; CDC5L truncations alone; data not shown
[5] = biological target: B1; assay: pull-down; 6xHis-tagged CDC5L truncations mixed with untagged CTNNBL1 in 50 mM Tris-HCl pH 8.0, 300 mM NaCl, dialysed against 50 mM Tris-HCl without NaCl at 4 °C overnight, loaded on Ni-NTA resin, washed with 10 mM imidazole, eluted with 300 mM imidazole, SDS-PAGE; settings: both partners purified

binding result [5] | Binder | stoichiometry N [1] | stoichiometry N [2] | stoichiometry N [3] | stoichiometry N [4]
– | B1 | 2 | 2 | 2 | –
binds | B2 | – | – | – | 2
binds | B3 | – | – | – | –
binds | B4 | – | – | – | 2
